Measured values from paper PMC10023157, “Peptides that Mimic RS repeats modulate phase separation of SRSF1, revealing a reliance on combined stacking and electrostatic interactions”.

Legend:
Experiment in all cases: not stated; Fluorescence polarization: 100 mM ER4 peptide, 400 mM Arg/Glu, pH 6.5; temperature not stated; three technical replicates
Conditions in all cases: protein: recombinant; tags: SUMO (pSMT3) His tag removed by Ulp1
SRSF1 NoC = SRSF1 NoC (human, UniProt Q07955 1-248, C16S;C148S)
SRSF1 T248C = SRSF1 T248C (human, UniProt Q07955 1-248, C16S;C148S;T248C)
SRSF1 N220C = SRSF1 N220C (human, UniProt Q07955 1-248, C16S;C148S;N220C)

Measured: binding result

Chain of SRSF1 T248C (Q07955 whole entry C16S/C148S/T248C): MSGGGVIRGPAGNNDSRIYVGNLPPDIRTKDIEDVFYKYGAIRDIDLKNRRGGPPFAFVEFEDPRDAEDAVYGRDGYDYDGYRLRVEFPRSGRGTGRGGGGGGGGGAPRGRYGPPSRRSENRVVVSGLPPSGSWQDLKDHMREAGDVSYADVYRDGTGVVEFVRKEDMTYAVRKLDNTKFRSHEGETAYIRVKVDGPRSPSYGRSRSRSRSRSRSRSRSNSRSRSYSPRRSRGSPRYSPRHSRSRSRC
Chain of SRSF1 N220C (Q07955 whole entry C16S/C148S/N220C): as the sequence (Q07955 whole entry C16S/C148S/T248C) above, with N220C, C248T counted along it
Chain of SRSF1 NoC (Q07955 whole entry C16S/C148S): as the sequence (Q07955 whole entry C16S/C148S/T248C) above, with C248T counted along it

UCAGAGGA (ssRNA) [UCAGAGGA (SRSF1 cognate RNA)]
binds: SRSF1 NoC | SRSF1 T248C | SRSF1 N220C
